In the Human Domainome abundance scans (Beltran et al. 2025):
± gives the uncertainty stated by the source.

B1: MEF2-activating motif and SAP domain-containing transcriptional regulator, residues 170 to 204; numbered along this chain, Q6ZN01 (parent)
chain: LKLEELTVSELRQQLRLRGLPVSGTKSMLLERMRG

Variants of: B1
Experiment: abundance fitness (aPCA) (normalised: wild type 0, dead -1); higher = more abundant; growth selection in yeast, the domain comes from the species named
Details: Homo sapiens

Variant | abundance fitness
LKLEELTVSELRQQDRLRGLPVSGTKSMLLERMRG [L15D] | -0.599 ± 0.14
LKLEELTVSELRQRLRLRGLPVSGTKSMLLERMRG [Q14R] | -0.174 ± 0.053
LKLEELTVSELRQQERLRGLPVSGTKSMLLERMRG [L15E] | -0.38 ± 0.099
LKLETLTVSELRQQLRLRGLPVSGTKSMLLERMRG [E5T] | -0.271 ± 0.11
LKLEELNVSELRQQLRLRGLPVSGTKSMLLERMRG [T7N] | -0.249 ± 0.4
LKLEELTVSELRQQLRERGLPVSGTKSMLLERMRG [L17E] | -0.089 ± 0.066
LKLEELTVSELRQQLRLRGLPVSGTKSMLLPRMRG [E31P] | -0.992 ± 0.42
LKLEELTVSELRQQLRLRGQPVSGTKSMLLERMRG [L20Q] | -0.587 ± 0.27
LKLEELTVSELRQQLRLRGLPVSGTKGMLLERMRG [S27G] | -0.108 ± 0.066
LKLEELTVSELRQQLRLRGLPVSGTKSMELERMRG [L29E] | -0.22 ± 0.14
LKLEELTVKELRQQLRLRGLPVSGTKSMLLERMRG [S9K] | 0.084 ± 0.12
LKLEELTVSELRQQLRLRGLPVSGKKSMLLERMRG [T25K] | -0.204 ± 0.1
LKLEELTSSELRQQLRLRGLPVSGTKSMLLERMRG [V8S] | -0.28 ± 0.068
LKLEELTVMELRQQLRLRGLPVSGTKSMLLERMRG [S9M] | 0.122 ± 0.1
LKLEELTVSELLQQLRLRGLPVSGTKSMLLERMRG [R12L] | -0.523 ± 0.074
LKLEELCVSELRQQLRLRGLPVSGTKSMLLERMRG [T7C] | -0.594 ± 0.17
LKLEELTVSELRQQLRLRGLPVKGTKSMLLERMRG [S23K] | -0.198 ± 0.075
LKLEELTVSELRQQLRLRGLPVCGTKSMLLERMRG [S23C] | -0.274 ± 0.16
LKLEELTVVELRQQLRLRGLPVSGTKSMLLERMRG [S9V] | -0.121 ± 0.056
LKLEELTVSELRQQLRLRGLPVSGTKSMLLERGRG [M33G] | -0.343 ± 0.078
LKLEEETVSELRQQLRLRGLPVSGTKSMLLERMRG [L6E] | -0.369 ± 0.11
LKLEELTVSELRQQLRLRGLPVSGTKSMLVERMRG [L30V] | -0.099 ± 0.07
LKLEELTVSELRQQLRLRGLPVSGTKSMLLMRMRG [E31M] | -0.343 ± 0.13
LKREELTVSELRQQLRLRGLPVSGTKSMLLERMRG [L3R] | -0.416 ± 0.064

Variant | abundance fitness
LKLEELTVSELRQQLRLRGLPVSGTKSMLLERMRL [G35L] | -0.074 ± 0.081
LKLEELTVSELRQQLRLRGLPVSGTKSMQLERMRG [L29Q] | -0.486 ± 0.085
LKLEELTVSALRQQLRLRGLPVSGTKSMLLERMRG [E10A] | -0.425 ± 0.1
RKLEELTVSELRQQLRLRGLPVSGTKSMLLERMRG [L1R] | -0.262 ± 0.14
LKLEELTVSECRQQLRLRGLPVSGTKSMLLERMRG [L11C] | -1.03 ± 0.095
LKLPELTVSELRQQLRLRGLPVSGTKSMLLERMRG [E4P] | -0.394 ± 0.29
LKLEELTVSELRQQLRLRGLPVSGTKSMLLENMRG [R32N] | -0.02 ± 0.19
LKWEELTVSELRQQLRLRGLPVSGTKSMLLERMRG [L3W] | -0.434 ± 0.089
LKLEELTVSELRQQLRLRGYPVSGTKSMLLERMRG [L20Y] | -0.284 ± 0.11
LKLEELTVSELRQQLRLRGLPVSPTKSMLLERMRG [G24P] | -0.829 ± 0.095
LKLEELTVSELRKQLRLRGLPVSGTKSMLLERMRG [Q13K] | 0.015 ± 0.079
LKLEELTVSELRQQLRLRGLPVSGTKSMLLEAMRG [R32A] | -0.459 ± 0.11
NKLEELTVSELRQQLRLRGLPVSGTKSMLLERMRG [L1N] | 0.092 ± 0.45
LKLEELTVSELRQQLRLRGLPVSGTKSMLLERMVG [R34V] | -0.244 ± 0.1
LKLEELTVSEGRQQLRLRGLPVSGTKSMLLERMRG [L11G] | -0.657 ± 0.063
LKLEELTVSELREQLRLRGLPVSGTKSMLLERMRG [Q13E] | -0.1 ± 0.1
LKLEELTVSELRQQLRLRGLPVRGTKSMLLERMRG [S23R] | -0.384 ± 0.076
LKVEELTVSELRQQLRLRGLPVSGTKSMLLERMRG [L3V] | -0.272 ± 0.097
LKLEELTVSELRQQLRLRGLAVSGTKSMLLERMRG [P21A] | -0.184 ± 0.075
LKLEELTVSELRQQLRLRGLPVSGTKSMLLERRRG [M33R] | -0.66 ± 0.084
LKLEELTVSELRQQLRPRGLPVSGTKSMLLERMRG [L17P] | -0.988 ± 0.15
LKLEELTVSELRQQLRLRGLPVSGTKSMGLERMRG [L29G] | -0.455 ± 0.053
LKLEELTVSELRQQLRLEGLPVSGTKSMLLERMRG [R18E] | -0.14 ± 0.052
LKFEELTVSELRQQLRLRGLPVSGTKSMLLERMRG [L3F] | 0.065 ± 0.16

Variant | abundance fitness
LKLEELTVSELRQQLRLRGLPVSGTKSMLLCRMRG [E31C] | -0.745 ± 0.46
LKLEELTVSELAQQLRLRGLPVSGTKSMLLERMRG [R12A] | -0.361 ± 0.11
LKLEELTVSELRQQLRLRGLPVSGTKAMLLERMRG [S27A] | -0.1 ± 0.064
EKLEELTVSELRQQLRLRGLPVSGTKSMLLERMRG [L1E] | 0.136 ± 0.086
LKLEELTVSDLRQQLRLRGLPVSGTKSMLLERMRG [E10D] | -0.402 ± 0.15
LKLEELTVSELRQQLRSRGLPVSGTKSMLLERMRG [L17S] | -0.249 ± 0.089
IKLEELTVSELRQQLRLRGLPVSGTKSMLLERMRG [L1I] | 0.108 ± 0.073
LKLEELTVSELRQQLRLRGLPVSGTKSMLLELMRG [R32L] | -0.485 ± 0.098
LKLEELTVSELRQQLRLRGLPVSGTKSMLLWRMRG [E31W] | -0.755 ± 0.18
LKLEELTVSELRQQLCLRGLPVSGTKSMLLERMRG [R16C] | -0.107 ± 0.08
LKLEELTVSRLRQQLRLRGLPVSGTKSMLLERMRG [E10R] | -0.552 ± 0.072
LKLEELTVSELRQQLRLRGLPVSGTKSMLLEMMRG [R32M] | -0.369 ± 0.23
LKLEERTVSELRQQLRLRGLPVSGTKSMLLERMRG [L6R] | -0.458 ± 0.064
LKLEELTVSELRQQARLRGLPVSGTKSMLLERMRG [L15A] | 0.11 ± 0.068
LKLEEHTVSELRQQLRLRGLPVSGTKSMLLERMRG [L6H] | -0.434 ± 0.11
LKLEELTVSELRQQLRLRGLPVSGTKSMMLERMRG [L29M] | -0.338 ± 0.21
LKLEELTVSELRQQLRLRGLPVSGTKSMLLLRMRG [E31L] | -0.503 ± 0.072
LKLEELTVSELRQQTRLRGLPVSGTKSMLLERMRG [L15T] | -0.43 ± 0.089
LKLEELQVSELRQQLRLRGLPVSGTKSMLLERMRG [T7Q] | -0.336 ± 0.07
LKLEELTVSELRQQLRLRGLPVSGTKSMLMERMRG [L30M] | -0.179 ± 0.097
LKLEELTVSELRQYLRLRGLPVSGTKSMLLERMRG [Q14Y] | -0.326 ± 0.25
LKLEELTVSELRQQLRWRGLPVSGTKSMLLERMRG [L17W] | -0.307 ± 0.089
